The values that follow come from paper PMC6327041, “Histone H3 binding to the PHD1 domain of histone demethylase KDM5A enables active site remodeling” (Nature Communications, 2019).

In series [1] the target is C-terminally 5-carboxyfluorescein (5-FAM) conjugated Ac-H3K4me3 31mer peptide. Briefly: fluorescence polarisation; direct FP: Ac-H3K4me3-fluorescein 31mer with varying KDM5A_(1-797); 400 µM MnCl2 and 400 µM N-OG; no effector peptide; Kd read at 1 min (the signal decreases over time).
Series [2] shares this target. The series can be described thus: fluorescence polarisation; direct FP: Ac-H3K4me3-fluorescein 31mer with varying KDM5A_(1-797); 400 µM MnCl2 and 400 µM N-OG; with 350 µM H3 10mer effector peptide; Kd read at 1 min (the signal is stable for at least 1 h). Background: Fluorescence polarisation rises when a labelled molecule tumbles more slowly, as on binding a larger partner.

Substrate in series [3]: C[C@H](N)C(=O)N[C@@H](CCCNC(=N)N)C(=O)N[C@H](C(=O)N[C@@H](CCCC[N+](C)(C)C)C(=O)N[C@@H](CCC(N)=O)C(=O)N[C@H](C(=O)N[C@@H](C)C(=O)N[C@@H](CCCNC(=N)N)C(=O)N[C@@H](CCCCN)C(=O)N[C@@H](CO)C(=O)O)[C@@H](C)O)[C@@H](C)O
Briefly: KDM5A demethylation, FDH-coupled formaldehyde release assay. In kind it is biochemical, human. Conditions: other: H3K4me3 10mer as substrate (Figure S3, response to reviewers).

B1: KDM5A_(1-797) (enzyme)
chain: MAGVGPGGYAAEFVPPPECPVFEPSWEEFTDPLSFIGRIRPLAEKTGICKIRPPKDWQPPFACEVKSFRFTPRVQRLNELEAMTRVRLDFLDQLAKFWELQGSTLKIPVVERKILDLYALSKIVASKGGFEMVTKEKKWSKVGSRLGYLPGKGTGSLLKSHYERILYPYELFQSGVSLMGVQMPNLDLKEKVEPEVLSTDTQTSPEPGTRMNILPKRTRRVKTQSESGDVSRNTELKKLQIFGAGPKVVGLAMGTKDKEDEVTRRRKVTNRSDAFNMQMRQRKGTLSVNFVDLYVCMFCGRGNNEDKLLLCDGCDDSYHTFCLIPPLPDVPKGDWRCPKCVAEECSKPREAFGFEQAVREYTLQSFGEMADNFKSDYFNMPVHMVPTELVEKEFWRLVSSIEEDVIVEYGADISSKDFGSGFPVKDGRRKILPEEEEYALSGWNLNNMPVLEQSVLAHINVDISGMKVPWLYVGMCFSSFCWHIEDHWSYSINYLHWGEPKTWYGVPSHAAEQLEEVMRELAPELFESQPDLLHQLVTIMNPNVLMEHGVPVYRTNQCAGEFVVTFPRAYHSGFNQGYNFAEAVNFCTADWLPIGRQCVNHYRRLRRHCVFSHEELIFKMAADPECLDVGLAAMVCKELTLMTEEETRLRESVVQMGVLMSEEEVFELVPDDERQCSACRTTCFLSALTCSCNPERLVCLYHPTDLCPCPMQKKCLRYRYPLEDLPSLLYGVKVRAQSYDTWVSRVTEALSANFNHKKDLIELRVMLEDAEDRKYPENDLFRKLRDAVKEAETCASV
For B1, the Kd in series [1] turned out to be 56.9 µM; in series [2], 62.5 µM.

B2: KDM5A1-797 (Homo sapiens) (protein)
chain: B1 chain
notes: KDM5A1-797 was cloned into a pFASTBAC HTA vector; His (N, cleaved yes); made in house; host or cells: Sf21 insect cells (baculovirus)
With B2, the Michaelis constant (Km) in series [3] worked out at 770 µM.

In general, Kd refers to the free concentration of one partner at which half of the binding sites on the other are occupied at equilibrium, for simple one-to-one binding. In general, Km refers to the substrate concentration at which the rate is half of its maximum.
